Measurements taken from PMC7308506.
pKd: −log10 of the molar value.

Legend:
[1] = target: LCTX-F2 (Lycosa singoriensis); assay: SPR; Biacore 3000; LCTX-F2 amine-coupled to CM5 (2,000 RU); FXIIa, kallikrein, FXa and thrombin as analytes, 0-100 ug/ml in twofold dilutions; 25 C; HBS-EP (10 mM HEPES pH 7.4, 3 mM EDTA, 150 mM NaCl, 0.05% P20); 30 ul/min, 120 s association, 300 s dissociation
thrombin = thrombin (UniProt P00734)

Substance | pKd [1] | also measured
thrombin (from UniProt P00734 364-622; P00734 364-622) (enzyme) | 6.15 | –
kallikrein (enzyme) | 5.34 | –
LCTX-F2 (peptide) | – | increase of the activity of FXa (chromogenic substrate) at 3 µM LCTX-F2 (activated factor X): 34.8%; increase of the activity of kallikrein (chromogenic substrate) at 3 µM LCTX-F2 (kallikrein): 33.3%; increase of the activity of thrombin (chromogenic substrate) at 3 µM LCTX-F2 (thrombin): 36.9%; increase of the relative protease activity of FXIIa (chromogenic substrate) at 0.03, 0.3 and 3 µM LCTX-F2: 1.2%, 44.0%, 96.0% (activated factor XII): 96%
activated factor X (enzyme) | 6.74 | –
activated factor XII (enzyme) | 5.14 | –
